Laboratory results published in US20120219559A1 (Johns Hopkins, published 2012).
Read-outs that look alike come from different tables or passages of the source.

How the values were obtained:
[1] = target: T1, human B7-H2Ig fusion protein (human, UniProt O75144 19-258); assay: SPR (BIAcore 3000); comparison of ICOSIg and CD28Ig on immobilized B7-H2Ig
T1 construct: Ig (Fc) part not given
T1 sequence: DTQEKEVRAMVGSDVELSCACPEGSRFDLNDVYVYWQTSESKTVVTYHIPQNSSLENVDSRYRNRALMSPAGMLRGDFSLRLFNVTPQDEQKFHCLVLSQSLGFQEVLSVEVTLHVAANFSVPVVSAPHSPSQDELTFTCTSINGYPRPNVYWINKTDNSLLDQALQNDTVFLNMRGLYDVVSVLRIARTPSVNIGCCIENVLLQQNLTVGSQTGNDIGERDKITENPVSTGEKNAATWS
Procedure: (§1) For all experiments, the same fusion proteins were injected into uncoated control flow cells to serve as the control. Binding data was overlaid with the fit of 1:1 interaction model.
(§2) Surface Plasmon Resonance. Protein interactions were measured and analyzed on a BIAcore 3000 instrument (BIAcore AB, Uppsala, Sweden) performed at 25° C. as described previously 20. […] Hepes, pH 7.4, containing 0.15 M NaCl, 0.005% surfactant P20 (HBS) was used as running buffer. […] All other reagents were purchased from BIAcore. […] The remaining activated carboxyl groups were blocked with 1 M ethanolamine (pH 8.5). Subsequently, the flow cells were extensively washed with HBS to generate a stable baseline. […] The flow cells were regenerated by two consecutive 10-second pulses with 10 mM NaOH. Data was analyzed by BIAevaluation software 4.1 (BIAcore).

[2] = target: T1, human B7-H2Ig fusion protein; assay: SPR (BIAcore 3000), ICOSIg injected over B7-H2Ig coupled at 500 RU, 1:1 fit
Procedure: as §2, with “Protein” for “Surface Plasmon Resonance. Protein”, “(3).” for “20.”, “pulse” for “pulses”

[3] = target: T1, human B7-H2Ig fusion protein; assay: SPR (BIAcore 3000); ICOSIg injected over B7-H2Ig coupled to a CM5 chip; 1:1 interaction model
Procedure: as §1, §2

[4] = target: T2, B7-H2 (Y53A) mutant, full length with C terminal GFP tag, on 293T cells (human, UniProt O75144 19-302, The C-terminal GFP reporter is not carried in the letters.); assay: flow cytometry; ICOSIg binding to 293T cells expressing the mutant
T2 construct: not shown: C-terminal GFP tag and any linker to it
T2 sequence: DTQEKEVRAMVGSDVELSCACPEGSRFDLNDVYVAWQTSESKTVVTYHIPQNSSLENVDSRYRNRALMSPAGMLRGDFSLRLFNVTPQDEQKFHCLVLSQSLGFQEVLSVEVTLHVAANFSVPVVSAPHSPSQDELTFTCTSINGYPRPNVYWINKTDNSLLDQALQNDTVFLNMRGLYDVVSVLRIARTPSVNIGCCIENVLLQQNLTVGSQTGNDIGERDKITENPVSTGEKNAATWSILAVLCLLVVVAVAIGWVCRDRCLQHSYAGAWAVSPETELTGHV
Description: (§3) These residues were all converted to alanine, a small […] amino acid with neutral charge, to avoid a large overall structure modulation (16).

[5] = target: T3, B7-H2 (Y51A) mutant, full length with C terminal GFP tag, on 293T cells (human, UniProt O75144 19-302, The C-terminal GFP reporter is not carried in the letters.); assay: as above
T3 construct: not shown: C-terminal GFP tag and any linker to it
T3 sequence: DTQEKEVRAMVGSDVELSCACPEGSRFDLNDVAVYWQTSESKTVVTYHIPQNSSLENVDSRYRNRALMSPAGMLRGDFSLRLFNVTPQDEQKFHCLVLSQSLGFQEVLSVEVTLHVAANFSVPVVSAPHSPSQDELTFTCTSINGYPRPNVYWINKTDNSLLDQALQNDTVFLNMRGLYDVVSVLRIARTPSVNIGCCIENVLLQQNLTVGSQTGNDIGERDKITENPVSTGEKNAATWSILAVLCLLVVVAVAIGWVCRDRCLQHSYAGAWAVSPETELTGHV
Description: as §3

[6] = target: T1, human B7-H2Ig fusion protein; assay: SPR (BIAcore 3000), ICOSIg injected over B7-H2Ig coupled at 500 RU, 1:1 fit; remark: listed apart in the source
Procedure: as §1, §2

[7] = target: T4, human B7-1 (CD80) expressed on 293T cells (human, UniProt P33681 35-288); assay: CDS well image, 293T cells transfected with the human gene, stained with the human fusion protein
T4 construct: whole, on cells
T4 sequence (looked up): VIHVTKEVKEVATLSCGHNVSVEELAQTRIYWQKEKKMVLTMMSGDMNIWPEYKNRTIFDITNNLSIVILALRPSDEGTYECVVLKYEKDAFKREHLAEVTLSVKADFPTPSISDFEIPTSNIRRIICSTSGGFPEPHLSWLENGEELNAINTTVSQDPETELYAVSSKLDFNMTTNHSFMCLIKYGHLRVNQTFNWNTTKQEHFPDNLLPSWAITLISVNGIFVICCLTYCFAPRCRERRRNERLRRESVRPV

[8] = target: T5, human B7-H1 expressed on 293T cells (human, UniProt Q9NZQ7 19-290); assay: as above
T5 construct: whole, on cells

[9] = target: T6, human CTLA-4, full length, expressed on cells (CTLA-4+293T cells) (human, UniProt P16410 36-223); assay: as above
T6 sequence: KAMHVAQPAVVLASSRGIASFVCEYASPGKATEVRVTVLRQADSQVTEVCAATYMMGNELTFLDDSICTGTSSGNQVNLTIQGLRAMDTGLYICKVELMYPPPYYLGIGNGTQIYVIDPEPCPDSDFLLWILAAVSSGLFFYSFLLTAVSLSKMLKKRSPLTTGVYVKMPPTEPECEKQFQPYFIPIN

T5 sequence (Q9NZQ7 19-290): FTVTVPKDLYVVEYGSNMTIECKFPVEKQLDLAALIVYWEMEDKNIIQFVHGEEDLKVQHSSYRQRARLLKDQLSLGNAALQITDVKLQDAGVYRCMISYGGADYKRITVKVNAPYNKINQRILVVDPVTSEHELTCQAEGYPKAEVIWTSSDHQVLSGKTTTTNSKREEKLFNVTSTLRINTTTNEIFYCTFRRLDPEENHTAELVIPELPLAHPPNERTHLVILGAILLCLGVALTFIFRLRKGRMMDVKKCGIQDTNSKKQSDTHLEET

B1: human ICOSIg fusion protein (Fc fusion)
chain: EINGSANYEMFIFHNGGVQILCKYPDIVQQFKMQLLKGGQILCDLTKTKGSGNTVSIKSLKFCHSQLSNNSVSFFLYNLDHSHANYYFCNLSIFDPPPFKVTLTGGYLHIYESQLCCQLKF
notes: Bought from R&D Systems; Ig (Fc) part not given
In the case of B1, the “fold higher affinity than CD28 for binding B7-H2” value [1] is reported as ~100 fold, the Kd [2] is reported as 16 nM and the koff [3] is reported as 0.004 s⁻¹. For the same binder, the kon [3] was 240000 M⁻¹ s⁻¹, the binding result [4] was “no binding” and the binding result [5] was “no binding”. The Kd [6] was 16 nM, the binding result [7] was “no binding” and the binding result [8] was “no binding”. B1: no binding [9].
